Measured values taken from patent publication US20220135655A1.

Target: H5VN04 recombinant trimeric hemagglutinin (HA) (influenza A virus H5VN04 (H5N1))

With CR6261 Y98A scFv the fold reduction of binding against CR6261 was > 4000 fold.

CR6261 F54A scFv showed a fold reduction of binding against CR6261 of 800 fold.

With F10 Y98A scFv the fold reduction of binding against F10 was > 3000 fold.
